# Data from patent US20090162366A1.
# B1: C40G1 (antibody, V domains shown)
# VH: QLQLQESGPGLVKPSETLSLTCTVSGGSISSSFYYCGWIRQPPGKGLEWIGSIYYRGSTYYNPSLKSRVTISVDTSKNQFSLKLSSVTAADTAVYYCARRVTMVRGVKGDYFDYWGQGTLVTVSS
# VL: DIQMTQSPSSLSASVGDRVTITCRASQGISSWLAWYQQKPEKVPKSLIYAASSLQSGVPSRFSGSGSGTDFTLTISSLQPEDFATYYCQQYNYYPLTFGGGTKVEIKR
# B2: L66 (antibody, V domains shown)
# VH: EVQLVESGGGVVRPGGSLRLSCAASGFTFDDYGMSWVRQAPGKGLEWVSGINWNGGSTGYADSVKGRFTISRDNAKNSLYLQMNSLRAEDTALYYCARDRVTMVRGVIMDYYGMDVWGQGTTVTVSS
# VL: QTVVTQEPSLTVSPRGTVTLTCSSSTGAVTSGYYPGWFQLKPGQAPMSLIYSARKKHSWTPARFSGSLLGGKAALTLSGVQPEDEAEYYCLLYYGGAYVFGTGTKVTVLG
# Experiments:
# [1] = target: T1, M2GHTGKS peptide conjugated with BSA (influenza A virus, A/chicken/HongKong/SF1/03 (H9N2)); assay: peptide-BSA ELISA; legend: EC50 > 10^-8M: -; conditions: remark: other sources report otherwise
# [2] = target: T2, M2KTGEKS peptide conjugated with BSA (influenza A virus, A/Quail/Arkansas/16309-7/94 (H7N3NSA)); assay: peptide-BSA ELISA; legend: EC50 > 10^-8M: -; conditions: remark: other sources report otherwise
# [3] = target: T3, M2LTKGS peptide conjugated with BSA (influenza A virus, A/Hong Kong/542/97 (H5N1)); assay: peptide-BSA ELISA; legend: EC50 > 10^-8M: -; conditions: remark: other sources report otherwise
# [4] = target: T4, M2KGENS peptide conjugated with BSA (influenza A virus, A/Turkey/VA/158512/02 (H7N2)); assay: peptide-BSA ELISA; legend: EC50 > 10^-8M: -; conditions: remark: other sources report otherwise
# [5] = target: T5, M2LTGS peptide conjugated with BSA (influenza A virus, A/Hong Kong/156/97 (H5N1)); assay: peptide-BSA ELISA; legend: EC50 > 10^-8M: -; conditions: remark: other sources report otherwise
# [6] = target: T6, M2PHTGS peptide conjugated with BSA (influenza A virus, A/chicken/HongKong/YU427/03 (H9N2)); assay: peptide-BSA ELISA; legend: EC50 > 10^-8M: -; conditions: remark: other sources report otherwise
# [7] = target: T7, M2HTGEKS peptide conjugated with BSA (influenza A virus, A/chicken/California/1002a/00 (H6N2)); assay: peptide-BSA ELISA; legend: EC50 > 10^-8M: -; conditions: remark: other sources report otherwise
# [8] = target: M2SG peptide conjugated with BSA (influenza A virus, A/swine/Tennessee/25/77 (H1N1)); assay: peptide-BSA ELISA (++ EC50<10^-9M; + 10^-9M<EC50<10^-8M); conditions: remark: other sources report otherwise
# [9] = target: M2TES peptide conjugated with BSA (influenza A virus, A/Viet Nam/1203/2004 (H5N1)); assay: as above; conditions: remark: other sources report otherwise
# [10] = target: M2EG peptide conjugated with BSA (influenza A virus, A/New York/687/1995 (H3N2)); assay: as above; conditions: remark: other sources report otherwise
# [11] = target: M2DLTGS peptide conjugated with BSA (influenza A virus, A/Hong Kong/485/97 (H5N1)); assay: as above; conditions: remark: other sources report otherwise
# CM17 (influenza A virus) = assay: ELISA on peptide, Ab 10 µg/ml
# NM11 (influenza A virus) = assay: ELISA on peptide, Ab 10 µg/ml
# CM16 (influenza A virus) = assay: ELISA on peptide, Ab 10 µg/ml
# CM12 (influenza A virus) = assay: ELISA on peptide, Ab 10 µg/ml
# M12 (influenza A virus) = assay: ELISA on peptide, Ab 10 µg/ml
# CM14 (influenza A virus) = assay: ELISA on peptide, Ab 10 µg/ml
# CM13 (influenza A virus) = assay: ELISA on peptide, Ab 10 µg/ml
# NM12 (influenza A virus) = assay: ELISA on peptide, Ab 10 µg/ml
# NM14 (influenza A virus) = assay: ELISA on peptide, Ab 10 µg/ml
# CM15 (influenza A virus) = assay: ELISA on peptide, Ab 10 µg/ml
# NM13 (influenza A virus) = assay: ELISA on peptide, Ab 10 µg/ml
# [12] = target: T1, M2GHTGKS peptide conjugated with BSA …; assay: peptide-BSA ELISA; conditions: remark: other sources report otherwise
# [13] = target: T2, M2KTGEKS peptide conjugated with BSA …; assay: peptide-BSA ELISA; conditions: remark: other sources report otherwise
# [14] = target: T3, M2LTKGS peptide conjugated with BSA …; assay: peptide-BSA ELISA; conditions: remark: other sources report otherwise
# [15] = target: T4, M2KGENS peptide conjugated with BSA …; assay: peptide-BSA ELISA; conditions: remark: other sources report otherwise
# [16] = target: T5, M2LTGS peptide conjugated with BSA …; assay: peptide-BSA ELISA; conditions: remark: other sources report otherwise
# [17] = target: T6, M2PHTGS peptide conjugated with BSA …; assay: peptide-BSA ELISA; conditions: remark: other sources report otherwise
# [18] = target: T7, M2HTGEKS peptide conjugated with BSA …; assay: peptide-BSA ELISA; conditions: remark: other sources report otherwise
# [19] = target: M2PHTGS (influenza A virus, A/chicken/HongKong/YU427/03 (H9N2)); conditions: remark: other sources report otherwise
# [20] = target: M2GHTGKS (influenza A virus, A/chicken/HongKong/SF1/03 (H9N2)); conditions: remark: other sources report otherwise
# [21] = target: M2LTGS (influenza A virus, A/Hong Kong/156/97 (H5N1)); conditions: remark: other sources report otherwise
# [22] = target: M2KGENS (influenza A virus, A/Turkey/VA/158512/02 (H7N2)); conditions: remark: other sources report otherwise
# [23] = target: M2KTGEKS (influenza A virus, A/Quail/Arkansas/16309-7/94 (H7N3NSA)); conditions: remark: other sources report otherwise
# [24] = target: M2LTKGS (influenza A virus, A/Hong Kong/542/97 (H5N1)); conditions: remark: other sources report otherwise
# [25] = target: M2HTGEKS (influenza A virus, A/chicken/California/1002a/00 (H6N2)); conditions: remark: other sources report otherwise
# [26] = target: T1, M2GHTGKS peptide conjugated with BSA …; assay: peptide-BSA ELISA (++ EC50<10^-9M; + 10^-9M<EC50<10^-8M); conditions: remark: other sources report otherwise
# [27] = target: M2-BSA conjugate (influenza A virus, A/Hong Kong/1/68 (H3N2)); assay: as above
# [28] = target: M2TGEK-BSA conjugate (influenza A virus, A/Netherlands/33/03 (H7N7)); assay: as above; conditions: remark: other sources report otherwise
# [29] = target: T4, M2KGENS peptide conjugated with BSA …; assay: as above; conditions: remark: other sources report otherwise
# [30] = target: M2LTGEKS-BSA conjugate (influenza A virus, A/Hong Kong/1074/99 (H9N2)); assay: as above; conditions: remark: other sources report otherwise
# [31] = target: T6, M2PHTGS peptide conjugated with BSA …; assay: as above; conditions: remark: other sources report otherwise
# [32] = target: M2 peptide (influenza A virus, A/Hong Kong/1/68 (H3N2)); assay: ELISA on peptide, Ab 10 µg/ml
# NM17 (influenza A virus) = assay: ELISA on peptide, Ab 10 µg/ml
# NM16 (influenza A virus) = assay: ELISA on peptide, Ab 10 µg/ml
# NM15 (influenza A virus) = assay: ELISA on peptide, Ab 10 µg/ml
binder,measurement,setting,value
B1,EC50,[1],> 10 nM
same,EC50,[2],> 10 nM
same,EC50,[3],> 10 nM
same,EC50,[4],> 10 nM
same,EC50,[5],> 10 nM
same,EC50,[6],> 10 nM
same,EC50,[7],> 10 nM
same,EC50,[8],< 1 nM
same,EC50,[9],< 1 nM
same,EC50,[10],< 1 nM
same,EC50,[11],1 to 10 nM
same,ELISA(OD450),CM17 (influenza A virus),2.78 OD450
same,ELISA(OD450),NM11 (influenza A virus),0.31 OD450
same,ELISA(OD450),CM16 (influenza A virus),0.76 OD450
same,ELISA(OD450),CM12 (influenza A virus),0.1 OD450
same,ELISA(OD450),M12 (influenza A virus),2.71 OD450
same,ELISA(OD450),CM14 (influenza A virus),0.1 OD450
same,ELISA(OD450),CM13 (influenza A virus),0.11 OD450
same,ELISA(OD450),NM12 (influenza A virus),0.12 OD450
same,ELISA(OD450),NM14 (influenza A virus),2.49 OD450
same,ELISA(OD450),CM15 (influenza A virus),0.11 OD450
same,ELISA(OD450),NM13 (influenza A virus),2.41 OD450
same,EC50,[12],> 10 nM
same,EC50,[13],> 10 nM
same,EC50,[14],> 10 nM
same,EC50,[15],> 10 nM
same,EC50,[16],> 10 nM
same,EC50,[17],> 10 nM
same,EC50,[18],> 10 nM
same,% of O.D. on M2 (SEQ ID NO:1),[19],< 10%
same,% of O.D. on M2 (SEQ ID NO:1),[20],< 10%
same,% of O.D. on M2 (SEQ ID NO:1),[21],< 10%
same,% of O.D. on M2 (SEQ ID NO:1),[22],< 10%
same,% of O.D. on M2 (SEQ ID NO:1),[23],< 10%
same,% of O.D. on M2 (SEQ ID NO:1),[24],< 10%
same,% of O.D. on M2 (SEQ ID NO:1),[25],< 10%
B2,EC50,[26],< 1 nM
same,EC50,[27],< 1 nM
same,EC50,[28],< 1 nM
same,EC50,[29],< 1 nM
same,EC50,[9],< 1 nM
same,EC50,[10],1 to 10 nM
same,EC50,[30],< 1 nM
same,EC50,[31],< 1 nM
same,ELISA(OD450),CM17 (influenza A virus),0.12 OD450
same,ELISA(OD450),NM11 (influenza A virus),0.09 OD450
same,ELISA(OD450),CM16 (influenza A virus),0.09 OD450
same,ELISA(OD450),CM12 (influenza A virus),0.08 OD450
same,ELISA(OD450),CM14 (influenza A virus),0.08 OD450
same,ELISA(OD450),CM13 (influenza A virus),0.08 OD450
same,ELISA(OD450),NM12 (influenza A virus),0.12 OD450
same,ELISA(OD450),NM14 (influenza A virus),0.22 OD450
same,ELISA(OD450),[32],0.51 OD450
same,ELISA(OD450),NM17 (influenza A virus),0.99 OD450
same,ELISA(OD450),NM16 (influenza A virus),1.04 OD450
same,ELISA(OD450),CM15 (influenza A virus),0.09 OD450
same,ELISA(OD450),NM15 (influenza A virus),0.2 OD450
same,ELISA(OD450),NM13 (influenza A virus),0.13 OD450
